The text below walks through data of patent US20240245805A1 (Orna Therapeutics, Inc., priority 2020, published 2024).

B1: EV A114 (nucleic acid, listed as Enterovirus sp.)
chain: TGTGCGCCTGTTTTGAAACCCCCTCCCCCAACTCGAAACGTAGAAGTAATGTACACTACTGATCAGTAGCAGGCGTGGCGCACCAGCCATGTCTCGATCAAGCACTTCTGTTTCCCCGGACTGAGTATCAATAGACTGCTCACGCGGTTGAAGGTGAAAACGTCCGTTACCCGGCTAACTACTTCGAGAAACCTAGTAGCACCATAGAAACTGCAGAGTGTTTCGCTCAGCACTTCCCCCGTGTAGATCAGGTCGATGAGTCACTGCAATCCCCACGGGTGACCGTGGCAGTGGCTGCGTTGGCGGCCTGCCTATGGGGCAACCCATAGGACGCTCTAAGGTGGACATGGTGTGAAGAGTCTATTGAGCTAGTTAGTAGTCCTCCGGCCCCTGAATGCGGCTAATCCTAACTGTGGAGCGCATACTCCCAAACCAGGGAGCAGTGCGTCGTAACGGGCAACTCCGCAGCGGAACCGACTACTTTGGGTGTCCGTGTTTCCTTTTATTCCTATACTGGCTGCTTATGGTGACAATTGAGAGATTGTTACCATATAGCTATTGGATTGGCCATCCAGTGTGTAATAGAGCAATCATTTACCAATTTGTTGGATTTACTCCATTAACCCACACGTCTCTCAACACACTACATTTCATCTTACTACTGAACACTAGAAA
modifications: lipid formulation
B2: Tottorivirus (nucleic acid, listed as Tottorivirus sp.)
DNA: CCCCTTTACGTAACTGCAACTTAAAGAGTACCCTACTGCATTGGATGTGTGGTAAACTTTTACGCACACATTTGTAGTAGTGTTAGTTATGTTCTACCTAATGAGTATGCATGCACCCGTCGAAACACGCTTGTGATAAGATAGGTGAGTCCATGTGACTAATCTCATTAAGATAAATAAGCACCCTACAACGCACGGCACGCTCGTGTCTTCCGTGCGGGGCCGGGACAACAGCGGCCTAAATCTTCTAGGTGACCACCATGCTTTTGGGACTATGGCACCACTGTGGACGTGAGTACCTGGCAGTAAGTCTGTGAAAAGATGGAAGGTGTCCCAAGCTATGGGGCGTATGCATATAGCCTGCGGAACAAACAACGGCGACGTTGTCCCCAGGGCCCAAAAGGCACGTGGATAAGATCCACCTATATGTTTACCCCATAGTGTAAGTCACTGGAAGTCCTAGTAATGGATGTCTGGAGTAAGGCTCACGGGGTAGGGCGAAGGATGCCCAGAAGGTACCCGTAGGTAACCTTAAGAGACTATGGATCTGATCTGGGGACCGGATGGCGCCATCACCATGACGTGGAGGCCGGTTTAAAAAACGTCTAAGCCCGACCAACAACCTAGGGGACTAGGTTTTCCTTTTTTATTCATGTATGACGTT
B3: Taura Syndrome Virus: "an IRES is an IRES sequence of Taura syndrome virus" (nucleic acid)
DNA: CTTTAAAAGTCGTGCGTGGCTTCACCACGCACGATCAGTACTATCAGTTAACCACTCTTGAATATGCTCAATGACCCTATTCAACACTGGTGTCTCTTAGTACATTATTTTAGCACTTAACGTGCATGAGTTTTGCCCATTTCTTTCAAAAAAATGAGTATTCGAGGAGACGTCCCGCTCCCCGTCTTATTTCAACCGTAGACTCGACATCTATTGGTGGACATTTAATTCCAGTCGCCGTAAGTTGCTTCTGCCCCGCGCTATATTTTCTTATACTTATGGTTCTATAGGTCTGGTTTAAAACGTAAATAGACGGCCCACAAACTATAGAACGCGTACCCGGAACGCCAATCCCGGATAAGTCCCTGGATATATAGATGCACCGCAATATAAGCCTGCAGACTGTCTCATATACT
modifications: Taura Syndrome Virus
B4: Ia Io (nucleic acid)
DNA: GGTGTCCGGGTGTGTGGGATAGACCCAGATGTGCAGTGGATGCGAGCATTTGAGTCAGAGTAGGAGCAAGCCCAGGGGCAAAGGGACCACATTGTGTATCCCGAATGAAGGATCGAGATTTCTCTCCTCATTACCCGGTGTCTTGTCACTGTTGGGGGGGCCCAACAGTCTTAGTCCTATACTGCCTGATAGGGTCGCGGCTGGCCGGACTCAAGTGCTATAGTCAGTTGATTTTCACTC
modifications: source: /note="Description of Unknown: Ia Io sequence"
B5: Hunnivirus A1 (nucleic acid, listed as Hunnivirus sp.)
DNA: TAACGTTTGGCAAGAACCCTCACCTGTCAATTGGGACCACCACTTTCAGTGACCCCATGCGAAGTAGTGAGAGAGAATAAGCTTTCTTACCCTTCATTTGTGAACCCTTCAGTCGAAGCCGCTTGGAATAAGATAGGAGGAAAAGTTCATTCTAAATGGAGTGAAACATGTACTTCAGAATTTCTAGCACGCGCTGGGCTTTCTTGCGTGTGACGGCACTGTCTTGCCGGAGCTCTCCACACTGACACCCCACGCTTGTGGACCTTGGTGGCAGATGACAACACTGCAGCTGGAATTGAGTGTCTGGTACACTCTGTGTAACAGTGAAAACAATGTGATCACTTCGGTGAGCTAGTAGCCTGTGGACCAACAACTGGTAACAGTTGCCTCAGGGGCCAAAAGCCACGGTGTTTACAGCACCCTACTGGTTTGATTGGAGCAATCCAAGATGTCACAGAGTTAGTAATTGCCAAGCAGTCCGTACTGGTATCTTGACATACCGTGCAGTTTTGGATAGTGAAGGATGCCCTGACGGTACCCATAGGTAACAAGTGACACTATGGATCTAAGCAGGGGCTCACTCTACGCTGCTTTACAGCTGGCTGTGAGTTAAAAAACGTCTAGCTATCCACAACCTAGGGGACTAGGTTTTCCTTTTATTTAGATTACAATTAT
B6: TRV NGS910 (nucleic acid)
DNA: ATGCGACGTGGTTGGAGATTAAACCGACTCCGACGAAAGTGCTATCATGCCTCCCCGATTATGTGATGTTTTCTGCCCTGCTGGGCGGAGCATTCTCGGGTTGATACACCTTGAATCCTTCATCCTTGGACCTCAGGTCCCCCGGTCTAAGCCGCTTGGAATACGACAGGGTTATTTTCCAATCTTCTCCTTTCTACTTTCATGAGTCCTATTCATGAAAAGGGTCTGTGCTGCCCCTTCCTTCTTGGAGAATCTGCGCGGCGGTCTTTCCGTCTCTCGAAAAGCGCAGATGCAGCATGCTGGAACCGGTGAAGAAAACAGTTCTTTGTGGAAACTTAGAGCAGACATCGAAACAGCTGTAGTGACCTCACAGTAGCAGCGGAACCCCCTCCTGGTAACAGGAGCCTCTGCGGCCAAAAGCCCCGTGGATAAGATCCACTGCTGTGAGCGGTGCAACCCCAGCACCCTGGTTCGATGGTTGTTCTCTGTGGAACCAGAGAATGGTCTTTCTCAAGCCCTCCAGTAGAGAAGCCAAGAATGTCCTGAAGGTACCCCGCATGCGGGATCTGATCAGGAGACCAATCGTCAGTGCTTTACACTGGCGCTTTGGTTTAAAAACTGTCACAGCTTCTCCAAACCAAGTGGTCTTGGTTTTCACTTTTATCAAACTGTTTC
modifications: lipid formulation; source: /note="Description of Unknown: TRV NGS910 sequence"
B7: VHEV (nucleic acid)
DNA: AATTCCTTCTTCCTTTCTCCTTGGACCTCGGTCCCCCGGTCTAAGCCGCTCGGAATATGACAGGGTTATTTTCACCTCTTCTCTCTTCTACTTCATAGTGTTCTATACTATGAAAGGGTATGTGTCGCCCCTTCCTTCTTGGAGAACGTGCGTGGCGGTCTTTCCGTCTCTCGAAAAACGTGCGTGCGACATGCAGAGTAACGCAAAGAAAGCAGTTCTTGGTCTAGCTCTGGTGCCCACAAGAAAACAGCTGTAGCGACCACACAAAGGCAGCGGAAACCCCCTCCTGGTAACAGGAGCCTCTGCGGCCAAAAGCCACGTGGATAAGATCCACCTTTGTGTGCGGTGCAACCCCAGCACCCTGGTTTCTTGGTGACACCTTAGTGAACCCTCGAATGGCAATCTCAAGCGCCTCTGTAGGAAAGCCAAGAATGTCCAGGAGGTACCCCTTCCTCATGGAGGGATCTGACCTGGAGACACATCACACGTGCTATACACTTGTGCTTGTGTTTAAAAATTGTCACAGCTTTCCCAAACCAAGTGGTCTTGGTTTTCCCTTAACTTCGAAAAGTCACTATGGCCTGCAAACATGGATACCCAGACGTGTGCCCT
modifications: source: /note="Description of Unknown: VHEV sequence"
B8: GFTV (nucleic acid)
chain: ATGGGGAAGGGTATGACGTGCCCCTTCCTTCTTCGGAGAACTCGCTCTAGTGGTCTTTCCACTTCTGGAAAAGAGTGAGTGCACGTGATCAGGACCGTCGAAGACGACAAATACCTGGTGCTCTATCTCATAGACGTTTCACAGCTGTAGCGACCCCTCAGTAGCAGCGGAAGCCCCCTCCTGGTGACAGGAGCCTCTGCGGCCAAAAGCCACGTGGATAAGATCCACTGCTGAGGGCGGTGCGACCCTAGCACCCTGTGATGCATACTAGTTGTAGCGTGCCGGACTATTGGTCTGTCATAAGACACCTGATAGAGAGACCAAGAATGTCCTGGAGGTACCCCGCGTGCGGGATCTGACCAGGAGACCATTGCCCAATGCTTTACAACGGGTCTATGGTTTAAAAACTGTCGCAGTCTCTCCAAACCAAGTGGTCTTGGTTTTCAATTACTTTGAATATTTCACT
modifications: lipid formulation; source: /note="Description of Unknown: GFTV sequence"
B9: Hunnivirus A2 (nucleic acid, listed as Hunnivirus sp.)
DNA: ACAGTTTTTGACAAGGACCCTCACCTGTCAATCGGGACCACCACTTTCAGTGACCCCGTGCGAAGTGTTGAGAGAAAGTGAGCTTTCTTACCCTTCATTTGTGAACCCTTCAGTCGAAGCCGCTTGGAATAAGATGGAAGGAAATGTTCATTCTAAATGGAGTGAAACATATACTTAATTTCCAGTGTTTAGTGGTCTTTCCACTAGACAACGGCACTGTCTTGCCGGAACTCTACACACCAACATTCCACGCTTGTGGGACTCAAATGTTGGATGACACAGTTGTAGCTGGAACTGAGTGTTTAGTGCACTCTGTGTAACAGTGAAAACAATGTGATCACTTCGGTGGGCTAGTAGCCTGTGGACTAACAACTGGTAACAGTTGCCTCAGGGGCCAAAAGCCACGGTGTTAACAGCACCCTACTAGTTTGATTGGAGCAATCCATGATGTTACAGAGTTAGTAACTGCCAAACAGATTGTACTGGTATCTTGGCATACCGTGCAACTTAGGATAGTGAAGGATGCCCTGGCGGTACCCATAGGTAACAAGTGACACTATGGATCTAAACAGGGGCTCACTCTACGTTGCTTTACAACTAGCTGTGAGTTAAAAAACGTCTAACTATCCACAACCTAGGGGACTAGGTTTTCCTTTTTATTTTTATACACAACTA

In this series the test system is HEK293 cells. It counts as cell-based, human. Particulars: circular RNA encoding Gluc with the listed IRES (UTR truncated to 675 nt) transfected into HEK293 cells; supernatant after 24 hours.
Take B1: the “Expression (luminescence from secreted Gluc protein)” value was 1.50E+08. With B2 the figure was 2.76E+07; with B3, 8.30E+05. With B4 the figure was 1.35E+06. On to B5, for which the “Expression (luminescence from secreted Gluc protein)” value is 1.61E+06. As for B6, the figure is 3.84E+07; as for B7, 1.74E+08; as for B8, 1.23E+06. As for B9, the figure is 6.38E+06.
